{"source": "patent US20070178561A1", "about": "“Anti-hiv-1 compounds based upon a conserved amino acid sequence shared by gp160 and the human cd4 protein” (priority 2003, published 2007)", "origin": "cited, not measured here", "key": {"[1]": {"target": "gp160 (Human immunodeficiency virus type 1 group M subtype B, UniProt P04578)", "conditions": "Jiang et al., Nature 365:113, 1993"}, "[2]": {"system": "HIV-1", "conditions": "in vitro viral cell growth assays using p24"}}, "data": [{"sequence": "TNWLWYIKLFIMIVGGLVGLRIVFAKKKC [683-707KKKC]", "values": [{"measurement": "binding to gp160", "setting": "[1]", "result": "bound gp160"}, {"measurement": "inhibition of viral growth (p24)", "setting": "[2]", "result": "does not inhibit viral growth"}]}]}
